Data as given in IntAct's records for PubMed 19197237.

B1: Peroxisomal membrane protein PEX14 (Homo sapiens), O75381 (parent)
chain: MASSEQAEQPSQPSSTPGSENVLPREPLIATAVKFLQNSRVRQSPLATRRAFLKKKGLTDEEIDMAFQQSGTAADEPSSLGPATQVVPVQPPHLISQPYSPAGSRWRDYGALAIIMAGIAFGFHQLYKKYLLPLILGGREDRKQLERMEAGLSELSGSVAQTVTQLQTTLASVQELLIQQQQKIQELAHELAAAKATTSTNWILESQNINELKSEINSLKGLLLNRRQFPPSPSAPKIPSWQIPVKSPSPSSPAAVNHHSSSDISPVSNESTSSSPGKEGHSPEGSTVTYHLLGPQEEGEGVVDVKGQVRMEVQGEEEKREDKEDEEDEEDDDVSHVDEEDCLGVQREDRRGGDGQINEQVEKLRRPEGASNESERD
partner: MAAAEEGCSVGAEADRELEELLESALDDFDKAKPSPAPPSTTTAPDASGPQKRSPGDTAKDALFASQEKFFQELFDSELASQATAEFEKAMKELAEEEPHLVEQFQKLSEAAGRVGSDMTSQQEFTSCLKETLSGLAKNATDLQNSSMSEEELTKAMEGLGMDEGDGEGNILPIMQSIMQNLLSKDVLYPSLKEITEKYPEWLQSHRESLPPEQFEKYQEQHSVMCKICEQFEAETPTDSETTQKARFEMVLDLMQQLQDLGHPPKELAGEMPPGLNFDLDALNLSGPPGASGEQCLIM
B2: Peroxisomal biogenesis factor 19 (Homo sapiens), P40855 (parent)
chain: B1 partner

Variants of: B1
Settings: with pex19_human PEX19, P40855

effect of a mutation on the interaction	Variant
disrupting interaction	F52W

Variants of: B1
Settings: with pex19_human PEX19, P40855
Remark: another data set of the same source

effect of a mutation on the interaction	Variant
decreasing interaction	R49E

Variants of: B1
Settings: with pex19_human PEX19, P40855
Remark: another data set of the same source

effect of a mutation on the interaction	Variant
decreasing interaction	K56E

Variants of: B2
Settings: with pex14_human PEX14, O75381

effect of a mutation on the interaction	Variant
disrupting interaction	L74A

Variants of: B2
Settings: with pex14_human PEX14, O75381
Remark: another data set of the same source

effect of a mutation on the interaction	Variant
disrupting interaction	F71A

Variants of: B2
Settings: with pex14_human PEX14, O75381
Remark: another data set of the same source

effect of a mutation on the interaction	Variant
disrupting interaction	E68A

Variants of: B2
Settings: with pex14_human PEX14, O75381
Remark: another data set of the same source

effect of a mutation on the interaction	Variant
disrupting interaction	F70A

Variants of: B2
Settings: with pex14_human PEX14, O75381
Remark: another data set of the same source

effect of a mutation on the interaction	Variant
disrupting interaction	F75A
